Measurements from article PMC8834707, “Probing the Dynamics of Streptococcus pyogenes Cas9 Endonuclease Bound to the sgRNA Complex Using Hydrogen-Deuterium Exchange Mass Spectrometry”.

Target: Cas9 (SpCas9) (Streptococcus pyogenes, UniProt Q99ZW2 1-1368)
Experiment: HDX-MS; protein:RNA 1:10 molar ratio; sgRNA without DNA; 9 peptides with reduced and 21 with increased deuterium uptake on binding; HDX buffer, pH and temperature not given in the material (section 3.4 text absent); complex at 1:10 Cas9:sgRNA formed immediately before exchange, D2O incubation 1-480 min
Conditions: protein: recombinant; tags: His-tag removed with TEV protease; single-strand sgRNA with repeat-antirepeat and stem-loops

Sequence of Cas9 (SpCas9) (Q99ZW2 whole entry): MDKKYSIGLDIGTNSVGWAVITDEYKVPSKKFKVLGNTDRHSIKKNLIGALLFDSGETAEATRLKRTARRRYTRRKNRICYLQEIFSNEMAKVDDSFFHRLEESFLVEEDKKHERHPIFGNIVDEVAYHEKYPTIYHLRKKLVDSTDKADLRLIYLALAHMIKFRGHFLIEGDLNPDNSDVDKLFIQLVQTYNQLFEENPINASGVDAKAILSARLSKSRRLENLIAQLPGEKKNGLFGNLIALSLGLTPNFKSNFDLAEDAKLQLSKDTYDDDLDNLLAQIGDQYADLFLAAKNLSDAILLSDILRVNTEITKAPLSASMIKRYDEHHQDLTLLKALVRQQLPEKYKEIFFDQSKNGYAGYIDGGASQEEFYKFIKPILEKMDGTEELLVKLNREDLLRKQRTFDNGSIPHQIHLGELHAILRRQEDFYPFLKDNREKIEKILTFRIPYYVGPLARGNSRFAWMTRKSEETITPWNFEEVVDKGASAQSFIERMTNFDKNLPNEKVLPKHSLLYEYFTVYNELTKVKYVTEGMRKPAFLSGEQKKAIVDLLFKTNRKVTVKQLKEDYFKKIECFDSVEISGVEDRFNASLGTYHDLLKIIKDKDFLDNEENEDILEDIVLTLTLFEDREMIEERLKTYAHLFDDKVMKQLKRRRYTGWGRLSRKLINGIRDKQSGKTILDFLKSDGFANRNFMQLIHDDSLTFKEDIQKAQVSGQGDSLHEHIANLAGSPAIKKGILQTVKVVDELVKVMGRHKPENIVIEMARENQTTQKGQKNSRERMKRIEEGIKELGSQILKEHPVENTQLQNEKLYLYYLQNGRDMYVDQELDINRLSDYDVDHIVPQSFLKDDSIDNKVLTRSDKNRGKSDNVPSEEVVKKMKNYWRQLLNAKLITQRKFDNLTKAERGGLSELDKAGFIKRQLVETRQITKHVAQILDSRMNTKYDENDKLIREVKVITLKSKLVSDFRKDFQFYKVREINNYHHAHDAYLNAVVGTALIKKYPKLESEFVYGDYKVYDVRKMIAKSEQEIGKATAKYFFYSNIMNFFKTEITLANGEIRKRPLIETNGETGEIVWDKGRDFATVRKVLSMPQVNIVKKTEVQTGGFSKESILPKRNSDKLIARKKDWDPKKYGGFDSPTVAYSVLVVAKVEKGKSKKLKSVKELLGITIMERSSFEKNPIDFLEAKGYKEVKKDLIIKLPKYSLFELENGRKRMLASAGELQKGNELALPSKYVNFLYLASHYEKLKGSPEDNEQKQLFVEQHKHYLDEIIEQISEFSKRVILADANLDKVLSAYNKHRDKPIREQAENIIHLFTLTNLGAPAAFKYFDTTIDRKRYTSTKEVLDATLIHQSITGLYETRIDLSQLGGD

B1: sgRNA (103 nt) (structured_RNA)
RNA: GGUUGGACAUGCUCGACAUUCGUUUUAGAGCUAGAAAUAGCAAGUUAAAAUAAGGCUAGUCCGUUAUCAACUUGAAAAAGUGGCACCGAGUCGGUGCUUUUUU
binding result: binds
